Assay results from PMC11665612.

Columns and labels:
[1] = biological target: heme-binding globin domain of human androglobin (Adgb), Cys132 mutated to Ser (human)
[2] = biological target: FL-G41C CaM (calmodulin G41C labelled with fluorescein-5-maleimide at Cys41, N-lobe) (UniProt P0DP23); experiment: fluorescence quenching on mixing

Substance | k1 (fast) of nitrite reduction, Adgb–CaM complex against Adgb alone [1] [fold] | kcat of nitrite reduction by the Adgb–CaM complex (nitrite 2.5–15 mM) [1] [s⁻¹] | decrease in fluorescence intensity at 531 nm [2] [%]
calmodulin (CaM) (from UniProt P0DP23 1-149) (natural protein) | 1.8 | 0.64 | 
heme-binding globin domain of human androglobin (Adgb), Cys132 mutated to Ser (domain or fragment) |  |  | 35
